Measurements from article PMC10128040, “Structural Elucidation of a Protective B Cell Epitope on Outer Surface Protein C (OspC) of the Lyme Disease Spirochete, Borreliella burgdorferi” (mBio, 2023).

How the values were obtained:
[1] = target: recombinant OspC type B (OspCB), residues 38 to 202 (B. burgdorferi strain ZS7) (UniProt Q44977); experiment: crystal structure; OspCB alone (22°C, 100 mM sodium phosphate citrate pH 4.2, 41.9% PEG 600; 1.5 Å) and OspCK alone (4°C, 100 mM Tris pH 8.5, 40% PEG 400, 200 mM LiSO4; 1.9 Å); P2_(1)
[2] = target: recombinant OspC type K (OspCK), residues 38 to 202 (B. burgdorferi strain 297); experiment: as above
[3] = target: the molecule itself; experiment: crystal structure; B5 Fab complexed with OspCA 1:1, 10 mg/mL; sitting drop, 22°C, 100 mM sodium cacodylate pH 6.5, 5% PEG 8K, 40% MPD; 2.7 Å, P2_(1)2_(1)2
[4] = target: T1, biotinylated recombinant OspC type A (OspCA) (Borreliella burgdorferi strain B31, …, UniProt Q07337, biotinylated (site not stated)); experiment: ELISA; capture ELISA: B5 IgG coated at 1 μg/mL in PBS; biotinylated OspC types A, B, K diluted 2-fold from 20 μg/mL; detected with avidin-HRP; details: both partners purified
T1 construct: Outer surface protein C type A, B. burgdorferi strain B31, residues 38 to 201; also called biotinylated OspCA; biotin-tagged recombinant OspC type A; not shown: deca-histidine, N-terminal, cleaved; SUMO, N-terminal, cleaved

[5] = target: T2, biotinylated recombinant OspC type B (OspCB) (Borreliella burgdorferi strain ZS7, …, UniProt Q44977, biotinylated (site not stated)); experiment: as above; details: both partners purified
T2 construct: Outer surface protein C type B, B. burgdorferi strain ZS7, residues 38 to 202; also called biotinylated OspC type B; biotin-tagged recombinant OspC type B; not shown: deca-histidine, N-terminal, cleaved

[6] = target: native OspC type A (OspCA) on the surface of viable B. burgdorferi strain B313 (B. burgdorferi (endogenous in strain B313)) (UniProt Q07337); experiment: flow cytometry on cells; 5 x 10^6 live B. burgdorferi B313 cells incubated with 10 μg/mL chimeric B5 IgG1 at 37°C for 1 h in BSK-II; goat anti-human IgG-Alexa 647; BD FACSCalibur
[7] = target: T1, biotinylated recombinant OspC type A …; experiment: BLI; biotinylated OspCA (3 μg/mL) captured on streptavidin biosensors; MAb B5 100 to 1.56 nM, 5 min association, 30 min dissociation; PBS with 2% BSA; 1:2 bivalent analyte model; apparent; Octet RED96e; details: both partners purified
[8] = target: T3, recombinant OspC type A (OspCA), residues 38 to 201 (B. burgdorferi strain B31, UniProt Q07337); experiment: crystal structure; B5 Fab complexed with OspCA 1:1, 10 mg/mL; sitting drop, 22°C, 100 mM sodium cacodylate pH 6.5, 5% PEG 8K, 40% MPD; 2.7 Å, P2_(1)2_(1)2; details: both partners purified
T3 construct: Outer surface protein C type A, B. burgdorferi strain B31, residues 38 to 201; Homodimer; also called rOspC type A; outer surface protein C; not shown: deca-histidine, N-terminal, cleaved; SUMO, N-terminal, cleaved

recombinant OspC type B (OspCB), residues 38 to 202 (from UniProt Q44977 38-202) (domain or fragment)
stoichiometry N [1]: 2

recombinant OspC type K (OspCK), residues 38 to 202 (domain or fragment)
stoichiometry N [2]: 2

B1: recombinant OspC type A (OspCA), residues 38 to 201 (domain or fragment, B. burgdorferi strain B31, UniProt Q07337 38-201, looked up)
chain: KGPNLTEISKKITDSNAVLLAVKEVEALLSSIDEIAAKAIGKKIHQNNGLDTENNHNGSLLAGAYAISTLIKQKLDGLKNEGLKEKIDAAKKCSETFTNKLKEKHTDLGKEGVTDADAKEAILKTNGTKTKGAEELGKLFESVEVLSKAAKEMLANSVKELTSP
notes: Outer surface protein C type A, B. burgdorferi strain B31, residues 38 to 201; Homodimer; also called rOspC type A; outer surface protein C; not shown: deca-histidine, N-terminal, cleaved; SUMO, N-terminal, cleaved
stoichiometry N [3]: 2

B2: chimeric B5 IgG1 (mouse B5 VH and VL on human IgG1 Fc and kappa light chain) (antibody, V domains shown)
VH: EVQLEESGPEQKKPGETVMMSCKASGYTFTDHSMHWVKQAPGKGLKWMGWINTETGEPTCADDFKGRFALSLETSSRTAFLQINNLKNEDTAIYFCIGRWGYYVYWGQGTTLVVSS
VL: DIQMTQSPASLSVSVGESVTIICRASENINSNLAWYQQKQGKPPQLLVYAATNLAGGVPSRFSGSGSGTQYSLKINSLQSEDFGTYYCQHVWGSPWTFGGGTKLEIK
notes: mouse B5 VH, as the VH of the heavy chain of m1; human IgG1 heavy chain constant region from the 'human IgG1 Fc' expression vector; mouse B5 VL, as the VL of the light chain of m1; human kappa light chain constant region from the expression vector; IgG1, kappa; also called chimeric derivative of B5; source: Expi293 cells, transfected, purified; copies: 2 + 2
binding result [4]: binds | binding result [5]: no binding (tested: 20 μg/mL) | MFI [6]: > 3200

B3: B5 IgG (as used for BLI and HX-MS; mouse IgG2a or chimeric IgG1 not told) (antibody, V domains shown)
VH: EVQLEESGPEQKKPGETVMMSCKASGYTFTDHSMHWVKQAPGKGLKWMGWINTETGEPTCADDFKGRFALSLETSSRTAFLQINNLKNEDTAIYFCIGRWGYYVYWGQGTTLVVSS
VL: DIQMTQSPASLSVSVGESVTIICRASENINSNLAWYQQKQGKPPQLLVYAATNLAGGVPSRFSGSGSGTQYSLKINSLQSEDFGTYYCQHVWGSPWTFGGGTKLEIK
notes: mouse B5 VH, as the VH of the heavy chain of m1; mouse B5 VL, as the VL of the light chain of m1; The methods say the chimeric IgG1 was used for dot blot and flow cytometry, which may mean that the mouse IgG2a was used here; also called MAb B5; B5 MAb; copies: 2 + 2
Kd [7]: ~0.2 nM

B4: B5 Fab fragment (Fab, V domains shown)
VH: EVQLEESGPEQKKPGETVMMSCKASGYTFTDHSMHWVKQAPGKGLKWMGWINTETGEPTCADDFKGRFALSLETSSRTAFLQINNLKNEDTAIYFCIGRWGYYVYWGQGTTLVVSS
VL: DIQMTQSPASLSVSVGESVTIICRASENINSNLAWYQQKQGKPPQLLVYAATNLAGGVPSRFSGSGSGTQYSLKINSLQSEDFGTYYCQHVWGSPWTFGGGTKLEIK
notes: VH and CH1 of mouse MAb B5; VL and CL of mouse MAb B5; Fab of the mouse IgG2a MAb B5; also called Fab B5; source: papain digestion of B5 IgG from the CDC; Fc depleted by protein A FPLC; purified by SEC (Superdex 200)
stoichiometry N [8]: 1
